The subject of the data set is Escherichia coli TOP10. Briefly: shrunken log2 fold change of peptide-encoding DNA abundance (4.5 h post-induction vs induction); higher = less antimicrobial activity (less host growth inhibition). Conditions: time post-induction: 4.5 h; library: site-saturation at positions 5, 18, 19, 20.
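Also: peptides expressed intracellularly from a pBAD plasmid library in pooled LB shake-flask culture, induced with 0.3% L-arabinose, DNA abundance read by NGS, three biological replicates, DESeq2 with apeglm shrinkage.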

Regarding RRIRERPPRLPRPRPRPLEVPRP, the “shrunken log2 fold change” value was -0.166.

Turning to RRIRERPPRLPRPRPRPPTPPRP, the “shrunken log2 fold change” value turned out to be 0.192.

As for RRIRERPPRLPRPRPRPKEQPRP, the “shrunken log2 fold change” value is 0.0401.

Regarding RRIRERPPRLPRPRPRPAEPPRP, the “shrunken log2 fold change” value is -0.000777.

Consider RRIRARPPRLPRPRPRPTLLPRP, for which the “shrunken log2 fold change” value worked out at 0.286.

As to RRIRRRPPRLPRPRPRPTITPRP, the “shrunken log2 fold change” value amounted to 0.0541.

As to RRIRMRPPRLPRPRPRPFKSPRP, the “shrunken log2 fold change” value was -0.0472.

In the case of RRIRFRPPRLPRPRPRPHSAPRP, the “shrunken log2 fold change” value is -0.179.

Turning to RRIRFRPPRLPRPRPRPNEIPRP, the “shrunken log2 fold change” value stood at 0.232.

Turning to RRIRDRPPRLPRPRPRPVTLPRP, the “shrunken log2 fold change” value is -0.283.

In the case of RRIRSRPPRLPRPRPRPDIVPRP, the “shrunken log2 fold change” value was found to be 0.252.

As to RRIRKRPPRLPRPRPRPEVIPRP, the “shrunken log2 fold change” value is -0.00256.

For RRIRWRPPRLPRPRPRPPVAPRP, the “shrunken log2 fold change” value amounted to 0.983.

Turning to RRIRGRPPRLPRPRPRPWTYPRP, the “shrunken log2 fold change” value was found to be 0.0864.

In the case of RRIRERPPRLPRPRPRPAWWPRP, the “shrunken log2 fold change” value came out at 0.00222.

Consider RRIRTRPPRLPRPRPRPVHIPRP, for which the “shrunken log2 fold change” value was -0.149.

As to RRIRFRPPRLPRPRPRPLWYPRP, the “shrunken log2 fold change” value was -0.721.

With RRIRERPPRLPRPRPRPKVPPRP, the “shrunken log2 fold change” value was -0.015.

Take RRIRFRPPRLPRPRPRPGYNPRP: the “shrunken log2 fold change” value was -0.332.

In the case of RRIRLRPPRLPRPRPRPKIFPRP, the “shrunken log2 fold change” value is -0.0395.

Take RRIRKRPPRLPRPRPRPFHQPRP: the “shrunken log2 fold change” value was -0.0483.

As for RRIRRRPPRLPRPRPRPRNQPRP, the “shrunken log2 fold change” value is -0.0577.

With RRIRTRPPRLPRPRPRPKFTPRP, the “shrunken log2 fold change” value is -0.0912.

Regarding RRIRGRPPRLPRPRPRPGDEPRP, the “shrunken log2 fold change” value amounted to 1.81.

Take RRIRKRPPRLPRPRPRPGYRPRP: the “shrunken log2 fold change” value is 0.129.

RRIRGRPPRLPRPRPRPEHSPRP: the “shrunken log2 fold change” value was found to be 0.114.

Turning to RRIRDRPPRLPRPRPRPAANPRP, the “shrunken log2 fold change” value stood at 0.273.

Turning to RRIRKRPPRLPRPRPRPERPPRP, the “shrunken log2 fold change” value is 0.407.

As to RRIRLRPPRLPRPRPRPYHEPRP, the “shrunken log2 fold change” value was -1.6.

RRIRWRPPRLPRPRPRPQVSPRP: the “shrunken log2 fold change” value is -0.0705.

Consider RRIRQRPPRLPRPRPRPEDTPRP, for which the “shrunken log2 fold change” value is -0.0122.

Turning to RRIRTRPPRLPRPRPRPMTPPRP, the “shrunken log2 fold change” value is 0.126.

For RRIRGRPPRLPRPRPRPEMSPRP, the “shrunken log2 fold change” value amounted to 0.25.

Turning to RRIRQRPPRLPRPRPRPDSTPRP, the “shrunken log2 fold change” value came out at 0.139.

On to RRIRERPPRLPRPRPRPPCAPRP, for which the “shrunken log2 fold change” value was -0.0458.

Regarding RRIRTRPPRLPRPRPRPLAWPRP, the “shrunken log2 fold change” value is 0.195.

For RRIRLRPPRLPRPRPRPFCPPRP, the “shrunken log2 fold change” value is -0.355.

Turning to RRIRSRPPRLPRPRPRPANLPRP, the “shrunken log2 fold change” value is -0.0937.

On to RRIRMRPPRLPRPRPRPVFKPRP, for which the “shrunken log2 fold change” value is -0.111.

With RRIRNRPPRLPRPRPRPAQVPRP, the “shrunken log2 fold change” value worked out at 0.157.

In the case of RRIRMRPPRLPRPRPRPPRWPRP, the “shrunken log2 fold change” value is -0.117.

As for RRIRLRPPRLPRPRPRPAADPRP, the “shrunken log2 fold change” value came out at 0.832.

As to RRIRIRPPRLPRPRPRPMLCPRP, the “shrunken log2 fold change” value is -0.0741.

On to RRIRWRPPRLPRPRPRPMNVPRP, for which the “shrunken log2 fold change” value was found to be 0.0542.

With RRIRLRPPRLPRPRPRPEYGPRP, the “shrunken log2 fold change” value was -0.029.

As to RRIRLRPPRLPRPRPRPYSIPRP, the “shrunken log2 fold change” value came to 0.0705.

For RRIRCRPPRLPRPRPRPQIKPRP, the “shrunken log2 fold change” value was -0.762.

In the case of RRIRKRPPRLPRPRPRPINMPRP, the “shrunken log2 fold change” value is -0.196.

Turning to RRIRNRPPRLPRPRPRPSCQPRP, the “shrunken log2 fold change” value was -0.185.

RRIRYRPPRLPRPRPRPPFIPRP: the “shrunken log2 fold change” value was -0.637.

In the case of RRIRFRPPRLPRPRPRPSLPPRP, the “shrunken log2 fold change” value stood at 0.0593.

In the case of RRIRVRPPRLPRPRPRPYKIPRP, the “shrunken log2 fold change” value was -0.726.

Consider RRIRWRPPRLPRPRPRPPWDPRP, for which the “shrunken log2 fold change” value was determined as 0.131.

Regarding RRIRYRPPRLPRPRPRPCNRPRP, the “shrunken log2 fold change” value is -0.182.

In the case of RRIRMRPPRLPRPRPRPIFHPRP, the “shrunken log2 fold change” value is -0.00123.

As for RRIRDRPPRLPRPRPRPWSKPRP, the “shrunken log2 fold change” value was -0.203.

Consider RRIRHRPPRLPRPRPRPWGAPRP, for which the “shrunken log2 fold change” value is -0.0102.

As for RRIRVRPPRLPRPRPRPYPIPRP, the “shrunken log2 fold change” value is -0.0204.

Take RRIRWRPPRLPRPRPRPYQQPRP: the “shrunken log2 fold change” value was -0.0018.

As to RRIRHRPPRLPRPRPRPDDFPRP, the “shrunken log2 fold change” value was -0.198.

On to RRIRRRPPRLPRPRPRPLPIPRP, for which the “shrunken log2 fold change” value was found to be 0.451.

RRIRWRPPRLPRPRPRPWNVPRP: the “shrunken log2 fold change” value was 0.0207.

Take RRIRIRPPRLPRPRPRPMCPPRP: the “shrunken log2 fold change” value is -0.0137.

For the sequence RRIRMRPPRLPRPRPRPHGVPRP, the “shrunken log2 fold change” value is 0.023.

For RRIRVRPPRLPRPRPRPQFMPRP, the “shrunken log2 fold change” value is -0.232.

Consider RRIRERPPRLPRPRPRPRLIPRP, for which the “shrunken log2 fold change” value is -0.635.

For RRIRIRPPRLPRPRPRPVCTPRP, the “shrunken log2 fold change” value is -0.159.

As for RRIRLRPPRLPRPRPRPKPFPRP, the “shrunken log2 fold change” value is 2.21.

With RRIRPRPPRLPRPRPRPCQPPRP, the “shrunken log2 fold change” value was -0.0774.

For the sequence RRIRDRPPRLPRPRPRPSRQPRP, the “shrunken log2 fold change” value was -0.12.

For RRIRQRPPRLPRPRPRPVPEPRP, the “shrunken log2 fold change” value came to 0.203.

For the sequence RRIRTRPPRLPRPRPRPHNRPRP, the “shrunken log2 fold change” value was -0.0489.

Consider RRIRCRPPRLPRPRPRPHMMPRP, for which the “shrunken log2 fold change” value is -1.12.

RRIRERPPRLPRPRPRPILVPRP: the “shrunken log2 fold change” value was 0.028.

RRIRGRPPRLPRPRPRPFCWPRP: the “shrunken log2 fold change” value was found to be 0.551.

In the case of RRIRGRPPRLPRPRPRPLTQPRP, the “shrunken log2 fold change” value turned out to be 0.594.

For the sequence RRIRNRPPRLPRPRPRPKCGPRP, the “shrunken log2 fold change” value was -0.0686.

With RRIRWRPPRLPRPRPRPPKEPRP, the “shrunken log2 fold change” value is 0.433.

Take RRIRSRPPRLPRPRPRPGEWPRP: the “shrunken log2 fold change” value was -0.0156.

On to RRIRIRPPRLPRPRPRPKCCPRP, for which the “shrunken log2 fold change” value is -0.143.

For the sequence RRIRSRPPRLPRPRPRPCDGPRP, the “shrunken log2 fold change” value is 0.0333.

With RRIRTRPPRLPRPRPRPSERPRP, the “shrunken log2 fold change” value is -0.186.

Turning to RRIRCRPPRLPRPRPRPMIAPRP, the “shrunken log2 fold change” value was 0.111.

Take RRIRFRPPRLPRPRPRPTRGPRP: the “shrunken log2 fold change” value came out at 0.54.

On to RRIRMRPPRLPRPRPRPVRFPRP, for which the “shrunken log2 fold change” value amounted to 0.725.

Regarding RRIRCRPPRLPRPRPRPVRFPRP, the “shrunken log2 fold change” value is 0.262.

Take RRIRRRPPRLPRPRPRPYRLPRP: the “shrunken log2 fold change” value was -0.0421.

With RRIRSRPPRLPRPRPRPCPMPRP, the “shrunken log2 fold change” value is -0.337.

For the sequence RRIRWRPPRLPRPRPRPFLRPRP, the “shrunken log2 fold change” value is 0.0966.

As to RRIRQRPPRLPRPRPRPCVHPRP, the “shrunken log2 fold change” value is -0.629.

In the case of RRIRKRPPRLPRPRPRPHSYPRP, the “shrunken log2 fold change” value was determined as 0.0421.
